This note sets out measurements from PMC7617774.

For this assay, the target named is SafA_(Ntd1) (Salmonella enterica). Briefly: crystal structure.

Take SafA_(Ntd1) (domain or fragment): the stoichiometry N amounted to 2.
